Assay [1] deals with column ligand of the FLAG-Tag system (Prot).
Assay [2] addresses column ligand of the Strep-Tag system (Prot).

In assay [1], FLAG-Tag (peptide) yielded a Capacity of 0.6 mg/mL and a Kd of 1 nM.

In assay [2], Strep-Tag (peptide) displayed a Capacity of 6 mg/mL and a Kd of 1000 nM.

The Kd is a measure of binding affinity in units of concentration. Read a low Kd as a tighter complex.

Source of the values: US20240417426A1.
